Source: PMC10397247

What was measured:
Assay in all cases: two-hybrid library CCNG1;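 also: natural log of median RNA to DNA barcode read ratio; higher means stronger binding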
4H3817-bA = biological target: T1, 4H3817-bA
T1 chain: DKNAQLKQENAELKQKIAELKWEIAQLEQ

4H3414-bA = biological target: T2, 4H3414-bA
T2 chain: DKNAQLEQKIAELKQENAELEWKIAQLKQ

4H3631-bA = biological target: T3, 4H3631-bA
T3 chain: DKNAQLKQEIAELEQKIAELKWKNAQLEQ

4H3974-bA = biological target: T4, 4H3974-bA
T4 chain: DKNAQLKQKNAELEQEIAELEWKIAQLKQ

4H1985-bA = biological target: T5, 4H1985-bA
T5 chain: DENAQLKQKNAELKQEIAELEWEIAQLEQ

4H3638-bA = biological target: T6, 4H3638-bA
T6 chain: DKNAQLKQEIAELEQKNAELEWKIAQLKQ

4H3129-bA = biological target: T7, 4H3129-bA
T7 chain: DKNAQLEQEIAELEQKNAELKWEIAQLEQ

4H570-bA = biological target: T8, 4H570-bA
T8 chain: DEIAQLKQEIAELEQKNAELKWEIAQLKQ

4H584-bA = biological target: T9, 4H584-bA
T9 chain: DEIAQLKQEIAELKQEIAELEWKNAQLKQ

4H1629-bA = biological target: T10, 4H1629-bA
T10 chain: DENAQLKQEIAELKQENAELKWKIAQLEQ

4H2667-bN = biological target: T11, 4H2667-bN
T11 chain: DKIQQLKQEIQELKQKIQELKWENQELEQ

4H906-bA = biological target: T12, 4H906-bA
T12 chain: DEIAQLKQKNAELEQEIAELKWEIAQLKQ

4H1804-bA = biological target: T13, 4H1804-bA
T13 chain: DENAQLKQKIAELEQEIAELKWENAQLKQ

4H850-bA = biological target: T14, 4H850-bA
T14 chain: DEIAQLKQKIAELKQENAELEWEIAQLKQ

4H1710-bA = biological target: T15, 4H1710-bA
T15 chain: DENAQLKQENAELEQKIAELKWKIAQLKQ

4H3172-bA = biological target: T16, 4H3172-bA
T16 chain: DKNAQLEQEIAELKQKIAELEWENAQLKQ

4H619-bA = biological target: T17, 4H619-bA
T17 chain: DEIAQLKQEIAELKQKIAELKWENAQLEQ

4H3843-bN = biological target: T18, 4H3843-bN
T18 chain: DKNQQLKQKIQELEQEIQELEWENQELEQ

4H3782-bN = biological target: T19, 4H3782-bN
T19 chain: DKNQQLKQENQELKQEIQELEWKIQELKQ

4H3112-bN = biological target: T20, 4H3112-bN
T20 chain: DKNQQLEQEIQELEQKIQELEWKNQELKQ

4H3855-bN = biological target: T21, 4H3855-bN
T21 chain: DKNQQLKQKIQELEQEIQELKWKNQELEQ

4H797-bN = biological target: T22, 4H797-bN
T22 chain: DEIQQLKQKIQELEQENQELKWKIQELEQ

4H3606-bN = biological target: T23, 4H3606-bN
T23 chain: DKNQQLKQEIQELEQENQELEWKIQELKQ

4H2610-bN = biological target: T24, 4H2610-bN
T24 chain: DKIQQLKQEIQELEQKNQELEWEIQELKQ

4H370-bN = biological target: T25, 4H370-bN
T25 chain: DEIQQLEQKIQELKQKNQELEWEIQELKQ

4H570-bN = biological target: T26, 4H570-bN
T26 chain: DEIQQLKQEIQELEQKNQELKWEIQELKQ

4H908-bN = biological target: T27, 4H908-bN
T27 chain: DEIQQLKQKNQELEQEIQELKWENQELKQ

4H1845-bN = biological target: T28, 4H1845-bN
T28 chain: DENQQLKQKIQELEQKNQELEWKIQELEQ

4H2697-bN = biological target: T29, 4H2697-bN
T29 chain: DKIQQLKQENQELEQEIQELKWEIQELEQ

4H3185-bN = biological target: T30, 4H3185-bN
T30 chain: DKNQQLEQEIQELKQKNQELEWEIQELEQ

4H331-bN = biological target: T31, 4H331-bN
T31 chain: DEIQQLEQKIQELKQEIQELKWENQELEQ

4H918-bN = biological target: T32, 4H918-bN
T32 chain: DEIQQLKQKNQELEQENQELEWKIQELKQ

4H72-bN = biological target: T33, 4H72-bN
T33 chain: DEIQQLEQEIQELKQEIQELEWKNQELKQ

4H2588-bN = biological target: T34, 4H2588-bN
T34 chain: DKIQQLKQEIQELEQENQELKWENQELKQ

4H3189-bN = biological target: T35, 4H3189-bN
T35 chain: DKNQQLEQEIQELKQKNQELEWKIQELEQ

4H4001-bN = biological target: T36, 4H4001-bN
T36 chain: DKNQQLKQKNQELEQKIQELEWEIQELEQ

4H953-bN = biological target: T37, 4H953-bN
T37 chain: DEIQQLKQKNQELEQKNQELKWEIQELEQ

4H454-bN = biological target: T38, 4H454-bN
T38 chain: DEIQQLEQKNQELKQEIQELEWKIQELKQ

4H3354-bN = biological target: T39, 4H3354-bN
T39 chain: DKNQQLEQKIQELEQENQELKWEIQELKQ

4H3427-bN = biological target: T40, 4H3427-bN
T40 chain: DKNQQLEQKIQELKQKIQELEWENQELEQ

4H2618-bN = biological target: T41, 4H2618-bN
T41 chain: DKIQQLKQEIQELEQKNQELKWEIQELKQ

4H2576-bN = biological target: T42, 4H2576-bN
T42 chain: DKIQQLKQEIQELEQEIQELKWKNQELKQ

4H607-bN = biological target: T43, 4H607-bN
T43 chain: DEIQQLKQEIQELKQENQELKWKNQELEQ

4H717-bN = biological target: T44, 4H717-bN
T44 chain: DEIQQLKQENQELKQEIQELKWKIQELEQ

4H462-bN = biological target: T45, 4H462-bN
T45 chain: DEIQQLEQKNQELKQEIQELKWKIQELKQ

4H883-bN = biological target: T46, 4H883-bN
T46 chain: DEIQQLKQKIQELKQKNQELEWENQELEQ

4H754-bN = biological target: T47, 4H754-bN
T47 chain: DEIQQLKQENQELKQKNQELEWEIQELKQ

4H619-bN = biological target: T48, 4H619-bN
T48 chain: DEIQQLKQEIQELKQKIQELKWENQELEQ

4H687-bN = biological target: T49, 4H687-bN
T49 chain: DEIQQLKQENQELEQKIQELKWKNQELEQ

4H2442-bN = biological target: T50, 4H2442-bN
T50 chain: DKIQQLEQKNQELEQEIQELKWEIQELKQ

4H568-bN = biological target: T51, 4H568-bN
T51 chain: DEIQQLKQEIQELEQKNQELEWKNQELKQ

4H2729-bN = biological target: T52, 4H2729-bN
T52 chain: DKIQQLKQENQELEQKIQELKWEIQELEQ

4H967-bN = biological target: T53, 4H967-bN
T53 chain: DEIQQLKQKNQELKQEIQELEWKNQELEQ

4H338-bN = biological target: T54, 4H338-bN
T54 chain: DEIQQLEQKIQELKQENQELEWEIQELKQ

4H2931-bA = biological target: T55, 4H2931-bA
T55 chain: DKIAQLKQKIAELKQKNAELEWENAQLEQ

4H2692-bA = biological target: T56, 4H2692-bA
T56 chain: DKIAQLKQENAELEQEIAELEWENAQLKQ

B1: 4H1629-bA (peptide)
chain: DENAQLKQEIAELKQENAELKWKIAQLEQ
With B1 the interaction score (4H3817-bA) was -0.529, the interaction score (4H3414-bA) was 0.702 and the interaction score (4H3631-bA) was -0.216. For the same binder, the interaction score (4H3974-bA) was -0.124, the interaction score (4H1985-bA) was -0.329 and the interaction score (4H3638-bA) was -0.477. It also gave an interaction score (4H3129-bA) of 0.102, an interaction score (4H570-bA) of -0.594 and an interaction score (4H584-bA) of -1.4. For the same binder, the interaction score (4H1629-bA) was 0.605, the interaction score (4H2667-bN) was -1.22 and the interaction score (4H906-bA) was -0.968. For the same binder, the interaction score (4H1804-bA) was -1.39, the interaction score (4H850-bA) was -1.14 and the interaction score (4H1710-bA) was -0.992. It also gave an interaction score (4H3172-bA) of -0.887 and an interaction score (4H619-bA) of -0.0748.

B2: 4H1845-bN (peptide)
chain: DENQQLKQKIQELEQKNQELEWKIQELEQ
For B2, the interaction score (4H3843-bN) was -0.731, the interaction score (4H3782-bN) was -1.24 and the interaction score (4H3112-bN) was -0.777. For the same binder, the interaction score (4H3855-bN) was -0.717, the interaction score (4H797-bN) was -0.559 and the interaction score (4H3606-bN) was -0.857. It also gave an interaction score (4H2610-bN) of -0.755, an interaction score (4H370-bN) of -1.16 and an interaction score (4H570-bN) of -2.11. For the same binder, the interaction score (4H908-bN) was -0.834, the interaction score (4H1845-bN) was 0.0957 and the interaction score (4H2697-bN) was -1.96. For the same binder, the interaction score (4H3185-bN) was -0.558, the interaction score (4H331-bN) was -1.66 and the interaction score (4H918-bN) was -1.04. The interaction score (4H72-bN) was -0.603, the interaction score (4H2588-bN) was -1.62 and the interaction score (4H3189-bN) was -0.856. It also gave an interaction score (4H4001-bN) of -1, an interaction score (4H953-bN) of -1.04 and an interaction score (4H454-bN) of -0.965. It also gave an interaction score (4H3354-bN) of -0.397, an interaction score (4H3427-bN) of -1.53 and an interaction score (4H2618-bN) of -0.877. For the same binder, the interaction score (4H2576-bN) was -1.34, the interaction score (4H607-bN) was -1.09 and the interaction score (4H717-bN) was -0.951. It also gave an interaction score (4H462-bN) of -0.741, an interaction score (4H883-bN) of -0.686 and an interaction score (4H2667-bN) of 0.755. It also gave an interaction score (4H754-bN) of -1.28, an interaction score (4H619-bN) of -0.153 and an interaction score (4H687-bN) of -1.5. For the same binder, the interaction score (4H2442-bN) was -0.755, the interaction score (4H568-bN) was -1.33 and the interaction score (4H2729-bN) was -0.274. It also gave an interaction score (4H967-bN) of -1.31 and an interaction score (4H338-bN) of -0.586.

B3: 4H2442-bN (peptide)
chain: DKIQQLEQKNQELEQEIQELKWEIQELKQ
In the case of B3, the interaction score (4H3782-bN) is reported as 0.148, the interaction score (4H3112-bN) is reported as -0.821 and the interaction score (4H3855-bN) is reported as -0.731. For the same binder, the interaction score (4H797-bN) was -0.491, the interaction score (4H908-bN) was -0.788 and the interaction score (4H3185-bN) was -1.14. The interaction score (4H331-bN) was 0.796, the interaction score (4H918-bN) was -0.127 and the interaction score (4H72-bN) was -0.588. It also gave an interaction score (4H4001-bN) of 0.0198, an interaction score (4H953-bN) of -0.933 and an interaction score (4H454-bN) of 0.883. The interaction score (4H3354-bN) was -0.568, the interaction score (4H3427-bN) was -0.236 and the interaction score (4H2618-bN) was 0.706. It also gave an interaction score (4H2576-bN) of -0.32, an interaction score (4H607-bN) of -1.3 and an interaction score (4H717-bN) of -1.28. The interaction score (4H883-bN) was -0.738, the interaction score (4H2667-bN) was 0.241 and the interaction score (4H2931-bA) was 0.256. It also gave an interaction score (4H754-bN) of -0.65, an interaction score (4H687-bN) of -0.717 and an interaction score (4H2442-bN) of -0.216. For the same binder, the interaction score (4H568-bN) was -0.89, the interaction score (4H2729-bN) was 0.367 and the interaction score (4H2692-bA) was -0.104. It also gave an interaction score (4H967-bN) of -0.892 and an interaction score (4H338-bN) of -0.476.
